Assay results: PMC11206880, “The RNA Helicase Ded1 from Yeast Is Associated with the Signal Recognition Particle and Is Regulated by SRP21” (Molecules, 2024)

B1: His-tagged SRP14 (natural protein, yeast (S. cerevisiae), UniProt P38985 1-146, looked up)
chain: MANTGCLSPGAFLSKVPEFFQTANEKHITVRLTAKRLIEHDPVEGNLEFDSTNHPDYDVSKKASEISVSSRSDREYPLLIRMSYGSHDKKTKCSTVVKASELDQFWQEYSSVFKGGMQNLIKKKKKKSKNGTISKTGKKNKVAKKN
notes: SRP14 of yeast, subcloned into the NdeI and XhoI sites of pET22b; source: E. coli Rosetta (DE3), purified (Ni-NTA)
B2: His-tagged Sec65 (natural protein, yeast (S. cerevisiae), UniProt P29478 1-273, looked up)
chain: MPRLEEIDDFNDIDDLDMELAELDPSLRTPIAPKITPKVVRSQDQENPAFLPGTNNNSNSNNNSSNEKEQLSFINPKTGKVERSEAISKKDLEEVKRFQVLYPCYFDINRSHKEGRRVPKELAVENPLAKTMADAVRELGILCIFEGEKCHPQDFGNPGRIRVLFKENGQLIGAATKFKGGKRQLMKAVGEYMKRHPTTIESLREIPYGPDFDNIEFKKIPRVKGFKMNEIVPLHSPFLMGHPMTKSVYETPKITAAEKSFKPPKNKYKVVRR
notes: Sec65 of yeast, cloned into the XhoI and BamHI sites of pET19b; source: E. coli Rosetta (DE3), purified (Ni-NTA)

Tests used:
Recombinant Ded1-His [1] = target: T1, Recombinant Ded1-His (Saccharomyces cerevisiae, UniProt P06634 1-604); test: co-IP; as a3, but SRP14, SRP21, SRP54 and Sec65 incubated together with Ded1; recovered with Ded1-specific IgG beads; details: both partners purified
T1 construct: Ded1, DEAD-box RNA helicase of budding yeast, expressed from the pET22b plasmid; also called purified Ded1
T1 sequence (P06634 whole entry): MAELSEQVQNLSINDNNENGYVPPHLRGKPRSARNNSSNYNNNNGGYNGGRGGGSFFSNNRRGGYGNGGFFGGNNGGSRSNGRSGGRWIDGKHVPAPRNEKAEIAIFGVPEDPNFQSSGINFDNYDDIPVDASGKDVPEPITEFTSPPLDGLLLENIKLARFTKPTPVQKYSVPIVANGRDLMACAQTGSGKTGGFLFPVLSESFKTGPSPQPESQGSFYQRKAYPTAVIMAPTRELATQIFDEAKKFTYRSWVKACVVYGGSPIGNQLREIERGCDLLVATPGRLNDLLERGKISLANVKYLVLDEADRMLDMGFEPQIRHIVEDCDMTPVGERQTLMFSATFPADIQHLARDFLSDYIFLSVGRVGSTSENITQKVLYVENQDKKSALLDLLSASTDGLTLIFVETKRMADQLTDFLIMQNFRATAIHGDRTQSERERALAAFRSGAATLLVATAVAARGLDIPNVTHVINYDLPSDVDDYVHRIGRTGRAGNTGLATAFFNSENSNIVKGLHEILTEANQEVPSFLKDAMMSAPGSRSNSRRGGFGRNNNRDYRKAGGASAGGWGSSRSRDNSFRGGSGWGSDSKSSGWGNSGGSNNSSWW

Recombinant Ded1-His [2] = target: T1, Recombinant Ded1-His; test: co-IP; purified Ded1 (4 µg) incubated with one purified SRP protein (4-6 µg), no RNA, 1x PBS with 2 mM MgCl2, 45 min, 30 °C; recovered with Ded1-specific IgG cross-linked to protein A-Sepharose beads; SDS-PAGE, Coomassie blue; details: both partners purified

Binder	binding result (Recombinant Ded1-His [1])	binding result (Recombinant Ded1-His [2])
B1	binds	–
B2	–	binds
